Here are results for 2 substances from patent US20190343963A1.

Assay [1] addresses IL-13 (human) (UniProt P35225). As to the kind of experiment: competition ELISA; 1 h incubation. A general note: In an ELISA, binding on a coated surface is turned into a signal by an enzyme label.
For assay [2], the target named is IL-13 (human) (UniProt P35225). Description: competition ELISA; 1 h incubation. This is another data set of the same source.
Assay [3] deals with IL-13 (human) (UniProt P35225). As to the kind of experiment: competition ELISA; 24 h incubation.
In assay [4] the target is IL-13 (human) (UniProt P35225). As to the kind of experiment: competition ELISA; 24 h incubation. The source holds these as a separate data set.

pEC50: −log10 of the molar value.

Sequence of IL-13 (human) (P35225 35-146): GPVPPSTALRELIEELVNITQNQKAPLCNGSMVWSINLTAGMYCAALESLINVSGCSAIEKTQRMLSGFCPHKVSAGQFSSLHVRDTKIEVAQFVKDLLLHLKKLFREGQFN

For orientation: pEC50 means the negative decadic logarithm of the EC50, by convention in mol/L. Higher therefore signals a small EC50. On to CAT-354, for which the negative logarithm of the EC50 (pEC50) in the assay with IL-13 (human) [1] is 9.60; with IL-13 (human) [2], 8.68; with IL-13 (human) [3], 9.27; in the assay with IL-13 (human) [4] it was 8.64.

As to CAT-354 fab, the values for the negative-log EC50 (pEC50) with IL-13 (human) [2] (Fab) and with IL-13 (human) [3] (Fab) were 8.45 and 8.40, respectively.
